# Assay results from patent publication US20030119169.
# T1: YVADamc
# T1 chain: YVAD
# T2: in vitro translated GST-CPP32 precursor, P42574
# T2 chain: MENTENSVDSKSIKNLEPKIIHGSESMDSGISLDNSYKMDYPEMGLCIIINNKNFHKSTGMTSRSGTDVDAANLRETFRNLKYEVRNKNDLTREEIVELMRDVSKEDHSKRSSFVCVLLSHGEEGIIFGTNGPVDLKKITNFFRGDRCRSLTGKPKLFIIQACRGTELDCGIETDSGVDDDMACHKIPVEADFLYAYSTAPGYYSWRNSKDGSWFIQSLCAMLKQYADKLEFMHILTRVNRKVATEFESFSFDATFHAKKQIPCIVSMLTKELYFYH
# T3: in vitro translated GST-Mch3α2 precursor
# T3 sequence (P55210 whole entry, looked up): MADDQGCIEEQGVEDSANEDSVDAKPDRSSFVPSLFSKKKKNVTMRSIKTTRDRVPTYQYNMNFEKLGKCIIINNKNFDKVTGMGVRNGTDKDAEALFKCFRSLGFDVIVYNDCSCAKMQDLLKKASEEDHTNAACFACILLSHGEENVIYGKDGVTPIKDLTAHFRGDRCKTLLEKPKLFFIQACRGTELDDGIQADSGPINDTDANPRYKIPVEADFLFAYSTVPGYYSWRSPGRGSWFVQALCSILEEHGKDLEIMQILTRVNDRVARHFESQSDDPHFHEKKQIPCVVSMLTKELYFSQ
# T4: tetrapeptide substrate DEVD-AMC
# T4 chain: DEVD
# B1: CPP32, bacterially expressed recombinant active enzyme (protein)
# chain: SGISLDNSYKMDYPEMGLCIIINNKNFHKSTGMTSRSGTDVDAANLRETFRNLKYEVRNKNDLTREEIVELMRDVSKEDHSKRSSFVCVLLSHGEEGIIFGTNGPVDLKKITNFFRGDRCRSLTGKPKLFIIQACRGTELDCGIETDSGVDDDMACHKIPVEADFLYAYSTAPGYYSWRNSKDGSWFIQSLCAMLKQYADKLEFMHILTRVNRKVATEFESFSFDATFHAKKQIPCIVSMLTKELYFYH
# B2: Mch3α, bacterially expressed recombinant active enzyme (protein)
# chain: AKPDRSSFVPSLFSKKKKNVTMRSIKTTRDRVPTYQYNMNFEKLGKCIIINNKNFDKVTGMGVRNGTDKDAEALFKCFRSLGFDVIVYNDCSCAKMQDLLKKASEEDHTNAACFACILLSHGEENVIYGKDGVTPIKDLTAHFRGDRCKTLLEKPKLFFIQACRGTELDDGIQADSGPINDTDANPRYKIPVEADFLFAYSTVPGYYSWRSPGRGSWFVQALCSILEEHGKDLEIMQILTRVNDRVARHFESQSDDPHFHEKKQIPCVVSMLTKELYFSQ
# What was measured:
# [1] = target: T1, YVADamc
# [2] = target: in vitro translated GST control [GST: P08515]
# in vitro translated GST control [GST: P08515], sequence (P08515 whole entry): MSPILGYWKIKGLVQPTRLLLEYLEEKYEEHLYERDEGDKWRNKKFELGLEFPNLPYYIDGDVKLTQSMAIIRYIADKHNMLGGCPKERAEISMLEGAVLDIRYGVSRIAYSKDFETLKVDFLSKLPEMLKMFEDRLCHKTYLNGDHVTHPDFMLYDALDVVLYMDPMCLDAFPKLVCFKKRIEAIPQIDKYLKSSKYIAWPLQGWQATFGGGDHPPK
# [3] = target: T2, in vitro translated GST-CPP32 …
# [4] = target: T3, in vitro translated GST-Mch3α2 precursor
# [5] = target: T4, tetrapeptide substrate DEVD-AMC
Protein,"Km (YVADamc, µM) [1] [µM]","kcat/Km (YVADamc, mM^-1 s^-1) [1] [M⁻¹ s⁻¹]","cleavage of 35S-labelled in vitro translated protein, SDS-PAGE and autoradiography [2]","cleavage of 35S-labelled in vitro translated precursor, SDS-PAGE and autoradiography [3]","cleavage of 35S-labelled in vitro translated precursor, SDS-PAGE and autoradiography [4]","cleavage of resin-immobilized 35S-labelled precursor, soluble products on gradient SDS gel [4]","kcat/Km (DEVDamc, mM^-1s^-1) [5] [mM⁻¹ s⁻¹]","Km (DEVDamc, µM) [5] [µM]"
B1,> 500,67,No cleavage was observed when CPP32 was incubated with an in vitro translated GST control,CPP32 showed a very weak activity towards its precursor and generated a faint GST-prodomain band of 30 kDa size,incubation of CPP32 with the in vitro translated GST-Mch3α generated a GST-prodomain cleavage product of molecular mass 32 kDa,CPP32 was observed to efficiently cleave the GST-Mch3α precursor,1600,–
B2,–,–,–,No cleavage was observed in the buffer control or the Mch3α reaction,"Mch3α exhibited significantly less activity than CPP32 towards the in vitro translated GST-Mch3α, a similar cleavage product was observed",–,11,51
